# Measured values published in patent publication US10925971B2, “Methods of treating PRLR positive breast cancer” (Regeneron Pharmaceuticals, Inc., priority 2016, dated 2021).
# B1: H1H6958N2-DM1: anti-PRLR antibody H1H6958N2 conjugated to the maytansinoid DM1 through an SMCC linker (conjugate)
# VH: QVQLVESGGGVVQPGRSLRLSCGASGFTFRNYGMQWVRQGPGKGLEWVTLISFDGNDKYYADSVKGRFTISRDNSKNTLFLQMNSLRTEDTAVYYCARGGDFDYWGQGTLVTVSS
# VL: DIQMTQSPSSLSASVGDRVTITCRASQDIRKDLGWYQQKPGKAPKRLIYAASSLHSGVPSRFSGSGSGTEFTLTISSLQPEDFATYYCLQHNSYPMYTFGQGTKLEIK
# Columns and labels:
# [1] = test system: PRLR expressing cells; test: In vitro cell viability (cell kill) assay, several cell backgrounds; format: cell-based, human; conditions: PC3/hPRLR and MCF7/hPRLR cell lines
# From the text: PRLR-overexpressing cells, including HEK293, PC3, MCF7 and NCI-N87, were generated to assess the ability of anti-PRLR conjugated antibodies to reduce cell viability. For comparative purposes, PC3 and T47D cells with overexpressed ErbB2 were also generated, as well as an MCF7 cell line over-expressing both hPRLR and hErbB2. Briefly, Lipofectamine® 2000-mediated transfection methodology was utilized to generate HEK293 cells expressing human PRLR (HEK293/hPRLR) or human ErbB2 (HEK293/hErbB2). Lipofectamine LTX with Plus Reagent was used to generate PC3 cells expressing human PRLR (PC3/hPRLR) or human ErbB2 (PC3/hErbB2). Lentiviral-mediated transduction was utilized to generate MCF7 cells expressing human PRLR (MCF7/hPRLR), NCI-N87 cells expressing human PRLR (NCI-N87/hPRLR), T47D cells over-expressing human ErbB2 (T47D/hErbB2), and MCF7 cells expressing both human PRLR and human ErbB2 (MCF7/hPRLR/hErbB2). All lines were selected for at least two weeks in complete growth media plus appropriate selection reagents. Stably expressing populations were enriched for PRLR expression via FACS using the anti PRLR antibody Control I.
# Next, the ability of anti-PRLR-DM1 antibody-drug conjugates (i.e., anti-PRLR antibodies conjugated to DM1 via a non-cleavable linker [SMCC]) to reduce cell viability was determined using in vitro cell based assays. Cells were seeded in PDL-coated 96 well plates at 1500 to 10000 cells per well in complete growth media and allowed to grow overnight. For cell viability curves, ADCs or free DM1 (as the methyl disulfide derivative DM1-SMe) were added to the cells at final concentrations ranging from 500 nM to 5 pM and incubated for 3 days. The 293, PC3 and T47D cells were incubated with CCK8 (Dojindo, Rockville, Md.) for the final 1-3 hours and the absorbance at 450 nm (OD450) was determined on a Flexstation3 (Molecular Devices, Sunnyvale, Calif.). MCF7 cells were treated with Hoechst 33342 nuclear stain while being fixed with 4% formaldehyde. Images were acquired on the ImageXpress micro XL (Molecular Devices, Sunnyvale, Calif.) and nuclear counts were determined via Columbus image analysis software (Perkin Elmer, Shelton, Conn.). Background OD450 values (PC3, 293, and T47D) or nuclear counts (MCF7) from digitonin (40 nM) treated cells was subtracted from all wells and viability was expressed as a percentage of the untreated controls. IC50 values were determined from a four-parameter logistic equation over a 10-point response curve (GraphPad Prism).
# [2] = test system: MCF7 tumors; test: MCF7 breast tumor xenograft, tumor volume; format: in vivo, NCr nude mice
# Method: After MCF7 or MCF7/PRLR tumors reached an average volume of ˜150-200 mm^3 (14-16 days post implantation), mice were randomized into treatment groups (n=8-9 mice/group) and received a single dose or three once-weekly doses of H1H6958N2-DM1, control ADC, or vehicle control, administered systemically by intravenous tail-vein injection. Tumor size and body weight were measured in vivo twice per week throughout the duration of the study.
# The T47Dv11 model was used to assess the activity of H1H6958N2-DM1 in a model with significant levels of endogenous PRLR. As parental T47D cells are poorly tumorigenic, in vivo passaging was employed to develop a variant with consistent tumorigenicity. Initially, 10×10^6 parental T47D cells were implanted subcutaneously (SC) into the left flank of female C.B.-17 SCID mice (Taconic, Hudson N.Y.). Tumors were supplemented with a 90-day release 1.7 mg estrogen pellet (Innovative Research America). Where T47D tumors were observed, they were excised and cut into 3 mm fragments and subsequently implanted into the left flank of separate female C.B.-17 SCID mice. Subsequent passaging was performed until a large tumor was disaggregated into a single cell suspension. The cells (named T47Dv11) from this tumor were then cultured in vitro and expanded. […] For efficacy studies, mice were implanted with 7.5×10^6 T47Dv11 cells into the left flank of female C.B.-17 SCID mice supplemented with a 90-day release 0.72 mg/pellet estrogen pellet. For MCF7 and MCF7/PRLR tumor xenografts, 2×10^7 MCF7/PRLR cells were implanted SC into the left mammary fat pad of female NCr nude mice (7-8 weeks old) supplemented with 90-day release 0.72 mg/pellet estrogen pellets. Tumors were measured with calipers twice a week for the duration of each study. Tumor volume was calculated using the formula TV=(length×width^2)/2.
# [3] = test system: MCF7 (MCF7/ATCC) cells; test: In vitro cell viability (cell kill) assay, nuclear counts; format: cell-based, human; conditions: MCF7 cells, approximately 3000 copies of PRLR per cell
# Procedure, shortened: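 Anti-PRLR–DM1 ADCs (non-cleavable SMCC linker) or free DM1-SMe, 500 nM to 5 pM for 3 days on parental or hPRLR-overexpressing lines. HEK293: CCK8 OD450; MCF7: Hoechst nuclear counts by imaging.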
# [4] = test system: T47D cells; test: In vitro cell viability (cell kill) assay, CCK8; format: cell-based, human; conditions: T47D cells (PRLR 12× above background), 3 days; read-out: IC50, growth inhibition / cell viability
# Procedure, shortened: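 T47D cells grown overnight, then exposed for 3 days to anti-PRLR-DM1 ADCs (SMCC non-cleavable linker) or DM1-SMe at 500 nM to 5 pM.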
# [5] = test system: T47DvII tumors; test: Phospho-histone-H3 (pHH3) IHC in treated tumors, mitotic arrest; format: in vivo, mice
# Method: In order to validate the activity of DM1 on microtubule activity, the induction of mitotic arrest following treatment of T47DvII tumors with H1H6958N2-DM1 in vivo was assessed by phospho-histone-H3 (pHH3) IHC. Mice were implanted with T47DvII cells and tumors were grown for 15 days where mice were randomized based on tumor volume and dosed intravenously with either vehicle, H1H6958N2-DM1 at 5 or 15 mg/kg or Control ADC at 15 mg/kg (N=4-5). At 24, 48 or 72 hours post-treatment, mice were euthanized and tumors processed as FFPE samples for IHC analysis. Tumor sections were then stained with anti-phospho Histone H3 (pHH3) antibody (clone: Ser10, Cell Signaling Technology #9701) as a measure of mitotic cells. Images were scanned on an Aperio XT Scan scope at 40× (Leica Systems). PHH3 positive nuclear signals were imaged and quantified with the Halo CytoNuclear Count algorithm (Halo, Indica Labs). The percent of positive cells in each tumor was quantified for each group and an average calculated for each treatment condition.
# [6] = test system: HEK293 (293) cells; test: In vitro cell viability (cell kill) assay, CCK8; format: cell-based, human
# Procedure, shortened: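 Cells stably overexpressing human PRLR (transfected or lentiviral, FACS-enriched) were treated for 3 days with anti-PRLR-SMCC-DM1 ADCs or free DM1-SMe at 500 nM to 5 pM. HEK293 and PC3 viability was read by CCK8 OD450; MCF7 by Hoechst nuclear counts. Digitonin background subtracted; % of untreated; IC50 from 10-point four-parameter fit.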
# [7] = test system: PC3 cells; test: In vitro cell viability (cell kill) assay, CCK8; format: cell-based, human; conditions: Table 18
# Procedure, shortened: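 Three-day exposure to DM1-conjugated anti-PRLR antibodies or DM1-SMe, 500 nM down to 5 pM, in cells engineered to express human PRLR. Surviving cells are quantified by CCK8 absorbance or by imaged Hoechst nuclear counts, relative to untreated wells.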
molecule,measurement,setting,value
B1,"cell killing, non-cleavable DM1 ADCs versus cleavable MMAE ADCs",[1],nearly equivalent cell killing
same,anti-tumor activity,"[2]; repeat treatment (q7dx3), 10 and 15 mg/kg, relative to control ADC",significantly inhibited MCF7 tumor growth
same,anti-tumor activity,"[2]; single dose 15 mg/kg, relative to control ADC",significantly inhibited the growth of the MCF7 tumors
same,anti-tumor activity,[2]; single dose of 5 or 10 mg/kg,moderate in vivo anti-tumor activity
same,MCF7 cell killing in vitro,[3],not inhibited
same,IC50,[4],1.3 nM
same,pHH3 immunoreactivity in tumors,"[5]; 5 mg/kg intravenously, relative to vehicle",significant increase relative to vehicle treated tumors
same,pHH3 levels in tumors,"[5]; 15 mg/kg, data not shown",further increase in pHH3 levels
same,time of peak pHH3 levels post treatment,"[5]; sampled at 24, 48 or 72 hours",48 hours
same,% Kill,"[6]; 293, Table 11, 3 days",98%
same,IC50,"[6]; 293, Table 11, 3 days",75 nM
same,% Kill,"[6]; HEK293, Table 13, + 15 nM PRL",86%
same,IC50,"[6]; HEK293, Table 13, + 15 nM PRL",110 nM
same,% Kill,[7],81%
same,IC50,[7],110 nM
